The results in this text go back to paper PMC7804450.

The assay concerns the target T1, tuberous sclerosis complex 1 (TSC1), human, subunit of the purified TSC complex (human), Q92574.
T1 chain: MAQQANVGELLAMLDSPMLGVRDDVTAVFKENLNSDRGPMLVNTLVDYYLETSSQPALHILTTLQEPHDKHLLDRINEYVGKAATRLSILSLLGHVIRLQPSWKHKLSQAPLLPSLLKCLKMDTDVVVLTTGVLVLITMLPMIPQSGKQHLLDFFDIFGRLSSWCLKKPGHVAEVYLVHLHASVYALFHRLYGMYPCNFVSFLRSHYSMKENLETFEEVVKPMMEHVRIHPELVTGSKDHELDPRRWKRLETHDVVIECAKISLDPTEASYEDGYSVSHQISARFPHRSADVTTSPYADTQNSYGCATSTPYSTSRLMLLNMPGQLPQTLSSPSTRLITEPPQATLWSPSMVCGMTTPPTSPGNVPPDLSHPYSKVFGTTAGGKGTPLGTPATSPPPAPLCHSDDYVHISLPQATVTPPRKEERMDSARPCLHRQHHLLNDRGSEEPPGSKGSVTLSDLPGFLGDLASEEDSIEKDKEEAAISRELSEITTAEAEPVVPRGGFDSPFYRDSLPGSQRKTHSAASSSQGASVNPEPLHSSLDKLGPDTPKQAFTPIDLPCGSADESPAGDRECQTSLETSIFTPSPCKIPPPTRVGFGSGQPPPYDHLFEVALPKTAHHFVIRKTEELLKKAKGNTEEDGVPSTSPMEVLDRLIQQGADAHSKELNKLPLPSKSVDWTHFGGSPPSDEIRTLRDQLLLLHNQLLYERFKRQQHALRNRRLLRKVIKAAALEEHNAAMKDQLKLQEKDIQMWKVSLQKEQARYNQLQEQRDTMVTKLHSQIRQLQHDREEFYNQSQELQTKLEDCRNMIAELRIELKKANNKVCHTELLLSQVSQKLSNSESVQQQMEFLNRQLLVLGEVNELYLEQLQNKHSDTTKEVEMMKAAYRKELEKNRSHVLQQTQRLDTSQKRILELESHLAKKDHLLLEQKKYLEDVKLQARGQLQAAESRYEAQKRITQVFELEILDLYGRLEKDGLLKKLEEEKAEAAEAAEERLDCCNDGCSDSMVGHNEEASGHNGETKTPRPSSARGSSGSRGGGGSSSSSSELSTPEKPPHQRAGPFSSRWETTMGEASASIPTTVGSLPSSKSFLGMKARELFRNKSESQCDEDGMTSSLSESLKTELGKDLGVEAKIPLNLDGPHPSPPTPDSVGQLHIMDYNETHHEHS
As to the kind of experiment: cryo-EM structure; human TSC complex (TSC1, TSC2, TBC1D7) co-expressed in Expi293F, purified, cross-linked by Grafix (glutaraldehyde); single particle reconstruction, 4.4 Å overall, core 3.6 Å, wings 3.9 and 4.1 Å. The note with it: remark: other sources report otherwise.

B1: tuberous sclerosis complex 1 (TSC1), human, subunit of the purified TSC complex, Q92574 1-1164 (natural protein)
chain: MAQQANVGELLAMLDSPMLGVRDDVTAVFKENLNSDRGPMLVNTLVDYYLETSSQPALHILTTLQEPHDKHLLDRINEYVGKAATRLSILSLLGHVIRLQPSWKHKLSQAPLLPSLLKCLKMDTDVVVLTTGVLVLITMLPMIPQSGKQHLLDFFDIFGRLSSWCLKKPGHVAEVYLVHLHASVYALFHRLYGMYPCNFVSFLRSHYSMKENLETFEEVVKPMMEHVRIHPELVTGSKDHELDPRRWKRLETHDVVIECAKISLDPTEASYEDGYSVSHQISARFPHRSADVTTSPYADTQNSYGCATSTPYSTSRLMLLNMPGQLPQTLSSPSTRLITEPPQATLWSPSMVCGMTTPPTSPGNVPPDLSHPYSKVFGTTAGGKGTPLGTPATSPPPAPLCHSDDYVHISLPQATVTPPRKEERMDSARPCLHRQHHLLNDRGSEEPPGSKGSVTLSDLPGFLGDLASEEDSIEKDKEEAAISRELSEITTAEAEPVVPRGGFDSPFYRDSLPGSQRKTHSAASSSQGASVNPEPLHSSLDKLGPDTPKQAFTPIDLPCGSADESPAGDRECQTSLETSIFTPSPCKIPPPTRVGFGSGQPPPYDHLFEVALPKTAHHFVIRKTEELLKKAKGNTEEDGVPSTSPMEVLDRLIQQGADAHSKELNKLPLPSKSVDWTHFGGSPPSDEIRTLRDQLLLLHNQLLYERFKRQQHALRNRRLLRKVIKAAALEEHNAAMKDQLKLQEKDIQMWKVSLQKEQARYNQLQEQRDTMVTKLHSQIRQLQHDREEFYNQSQELQTKLEDCRNMIAELRIELKKANNKVCHTELLLSQVSQKLSNSESVQQQMEFLNRQLLVLGEVNELYLEQLQNKHSDTTKEVEMMKAAYRKELEKNRSHVLQQTQRLDTSQKRILELESHLAKKDHLLLEQKKYLEDVKLQARGQLQAAESRYEAQKRITQVFELEILDLYGRLEKDGLLKKLEEEKAEAAEAAEERLDCCNDGCSDSMVGHNEEASGHNGETKTPRPSSARGSSGSRGGGGSSSSSSELSTPEKPPHQRAGPFSSRWETTMGEASASIPTTVGSLPSSKSFLGMKARELFRNKSESQCDEDGMTSSLSESLKTELGKDLGVEAKIPLNLDGPHPSPPTPDSVGQLHIMDYNETHHEHS
Turning to B1, the stoichiometry N – broadly, a count of units in the complex or per binding partner – turned out to be 2.
